The target in assay [1] is 狨猴(marmoset) Tim-3蛋白 (狨猴(marmoset)) (UniProt F7I881). The experiment in a line: ELISA, against ABTIM3 as reference. (In general: ELISA stands for enzyme-linked immunosorbent assay.)
Assay [2] concerns the target 人TIM-3 (recombinant antigen of the ELISA of Example 3: TIM-3-hFc captured on goat-anti-hFc, or Tim-3-his coated directly) (human) (UniProt Q8TDQ0). The experiment in a line: ELISA of hybridoma supernatant on human TIM-3 (Example 3).

This passage reports fold stronger than the positive control molecule and ELISA 数值(OD450) results from patent CN110272489A.

B1: 人源化ab32抗体 (全人源化抗体) (antibody, human IgG4 S228P, kappa, V domains shown)
VH: EVQLVESGGGLVKPGGSLRLSCAASGFTFSDYYMTWVRQAPGKGLEWVSSINYDGRNTYYLDSLKSRFTISRDNAKNSLYLQMNSLRAEDTAVYYCARGYYYYGSSPNYFDYWGQGTLVTVSS
VL: DIQMTQSPSSLSASVGDRVTITCRASENIYSYLTWYQQKPGKAPKLLIYNAKTLAEGVPSRFSGSGSGTDFTLTISSLQPEDFATYYCQQHYGTPLTFGQGTKLEIKR
As to B1, the fold stronger than the positive control molecule in assay [1] was > 4 fold.

B2: mab15 (鼠源抗体) (antibody, V domains shown)
VH: EVKLVESEGGLVQPGSSMKLSCTASGFTFSDYYMTWVRQVPEKGLEWVASINYDGRNTYYLDSLKSRFIISRDNAKNILYLQMSSLKSEDTATYYCARGYYYYGSSPNYFDYWGQGTTLTVSS
VL: DIQMTQSPASLSASVGETVTITCRASENIYSYLTWYQQKQGKSPQLLVYNAKTLAEGVPSRFSGSGSGTQFSLRINSLQPEDFGNYYCQQHYGTPLTFGAGTKLELK
Regarding B2, in assay [2], the ELISA 数值(OD450) was found to be 1.14 OD450.
